B1: HA-Snc2p (COOH-terminally triple-HA-tagged Sncp) (natural protein)
chain: MSSSVPYDPYVPPEESNSGANPNSQNKTAALRQEIDDTVGIMRDNINKVAERGERLTSIEDKADNLAISAQGFKRGANRVRKQMWWKDLKMRMCLFLVVIILLVVIIVPIVVHFS

Key:
[1] = molecular target: Sncp (Snc proteins, secretory vesicle SNARE) (yeast (endogenous in the yeast strains of Table 1)) (UniProt P31109); assay: co-IP
Tlg2p = molecular target: T1, Tlg2p (yeast (endogenous in the yeast strains), UniProt Q08144 1-397); assay: co-IP
T1 sequence: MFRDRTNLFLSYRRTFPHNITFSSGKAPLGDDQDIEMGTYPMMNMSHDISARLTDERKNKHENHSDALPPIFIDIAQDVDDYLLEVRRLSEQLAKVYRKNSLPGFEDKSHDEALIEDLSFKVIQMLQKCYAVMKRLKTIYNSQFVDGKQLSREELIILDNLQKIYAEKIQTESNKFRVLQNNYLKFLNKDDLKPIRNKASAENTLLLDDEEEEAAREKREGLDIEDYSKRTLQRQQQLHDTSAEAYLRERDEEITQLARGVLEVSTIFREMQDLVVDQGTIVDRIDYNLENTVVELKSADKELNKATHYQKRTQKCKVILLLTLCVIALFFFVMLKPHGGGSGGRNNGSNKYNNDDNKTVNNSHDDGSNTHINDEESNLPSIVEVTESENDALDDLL

Chain of Sncp (Snc proteins, secretory vesicle SNARE) (yeast (endogenous in the yeast strains of Table 1)) (P31109 whole entry): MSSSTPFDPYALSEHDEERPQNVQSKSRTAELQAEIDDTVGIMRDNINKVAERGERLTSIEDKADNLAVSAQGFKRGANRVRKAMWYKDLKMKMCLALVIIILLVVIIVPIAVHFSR

| Molecule | percent of total Ssop coprecipitating with Sncp [1] [%] | fold less bound to Tlg2p than to Ssop (Tlg2p) [fold] |
| --- | --- | --- |
| Ssop (Sso proteins, plasma membrane SNARE) (from UniProt P32867 1-290) (natural protein) | 0.7 |  |
| B1 |  | 10 |

From paper PMC2192655 (The Journal of Cell Biology, 2000)
